# Assay results published in patent US20080124280A1.
# Assays:
# purified αVβ3 integrin [1] = target: purified αVβ3 integrin (UniProt P06756); assay: antibody at 2 µg/ml added to 2 µg purified αVβ3 before [125I]-T4; native gel, band intensity
# purified αVβ3 integrin [2] = target: purified αVβ3 integrin (UniProt P06756); assay: antibody at 4 µg/ml added to 2 µg purified αVβ3 before [125I]-T4; native gel, band intensity
# purified αVβ3 integrin [3] = target: purified αVβ3 integrin (UniProt P06756); assay: antibody at 8 µg/ml added to 2 µg purified αVβ3 before [125I]-T4; native gel, band intensity
# purified αVβ3 integrin [4] = target: purified αVβ3 integrin (UniProt P06756); assay: antibody at 1 µg/ml added to 2 µg purified αVβ3 before [125I]-T4; native gel, band intensity
# purified αVβ3 integrin [5] = target: purified αVβ3 integrin (UniProt P06756); assay: antibody at 8 µg/ml added to purified αVβ3 30 min before [125I]-T4; native gel; the legend's value differs from the 59% of paragraph 377
# purified αVβ3 integrin, sequence (P06756 31-1048 limits assumed, form in doubt, chain 1 of 2): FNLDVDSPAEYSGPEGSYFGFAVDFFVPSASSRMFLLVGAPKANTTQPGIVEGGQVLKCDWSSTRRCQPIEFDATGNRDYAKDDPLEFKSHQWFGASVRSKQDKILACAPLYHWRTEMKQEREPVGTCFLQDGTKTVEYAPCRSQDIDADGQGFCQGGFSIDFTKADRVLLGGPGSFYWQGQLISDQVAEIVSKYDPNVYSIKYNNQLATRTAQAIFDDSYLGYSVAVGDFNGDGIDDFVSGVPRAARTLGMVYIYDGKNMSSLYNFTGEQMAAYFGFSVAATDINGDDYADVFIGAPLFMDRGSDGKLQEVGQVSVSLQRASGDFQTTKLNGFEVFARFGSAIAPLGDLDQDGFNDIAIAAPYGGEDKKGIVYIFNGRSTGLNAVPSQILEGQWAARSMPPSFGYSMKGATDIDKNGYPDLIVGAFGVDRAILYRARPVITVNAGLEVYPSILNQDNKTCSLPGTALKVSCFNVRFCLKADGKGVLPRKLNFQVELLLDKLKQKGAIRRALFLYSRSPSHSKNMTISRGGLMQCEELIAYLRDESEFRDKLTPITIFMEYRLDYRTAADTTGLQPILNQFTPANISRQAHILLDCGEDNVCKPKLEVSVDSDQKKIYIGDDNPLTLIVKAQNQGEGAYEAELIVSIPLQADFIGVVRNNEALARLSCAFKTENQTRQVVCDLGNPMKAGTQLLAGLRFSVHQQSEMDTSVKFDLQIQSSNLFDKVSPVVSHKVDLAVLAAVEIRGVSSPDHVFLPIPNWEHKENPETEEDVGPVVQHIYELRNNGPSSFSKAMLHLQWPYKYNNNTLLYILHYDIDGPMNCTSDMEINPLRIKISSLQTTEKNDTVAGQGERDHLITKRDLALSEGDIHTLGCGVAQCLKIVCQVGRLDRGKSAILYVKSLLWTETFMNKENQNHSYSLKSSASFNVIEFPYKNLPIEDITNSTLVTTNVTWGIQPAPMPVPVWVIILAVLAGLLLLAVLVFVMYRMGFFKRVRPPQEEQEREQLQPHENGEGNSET
# purified αVβ3 integrin, sequence (P05106 27-788 limits assumed, form in doubt, chain 2 of 2, further chain): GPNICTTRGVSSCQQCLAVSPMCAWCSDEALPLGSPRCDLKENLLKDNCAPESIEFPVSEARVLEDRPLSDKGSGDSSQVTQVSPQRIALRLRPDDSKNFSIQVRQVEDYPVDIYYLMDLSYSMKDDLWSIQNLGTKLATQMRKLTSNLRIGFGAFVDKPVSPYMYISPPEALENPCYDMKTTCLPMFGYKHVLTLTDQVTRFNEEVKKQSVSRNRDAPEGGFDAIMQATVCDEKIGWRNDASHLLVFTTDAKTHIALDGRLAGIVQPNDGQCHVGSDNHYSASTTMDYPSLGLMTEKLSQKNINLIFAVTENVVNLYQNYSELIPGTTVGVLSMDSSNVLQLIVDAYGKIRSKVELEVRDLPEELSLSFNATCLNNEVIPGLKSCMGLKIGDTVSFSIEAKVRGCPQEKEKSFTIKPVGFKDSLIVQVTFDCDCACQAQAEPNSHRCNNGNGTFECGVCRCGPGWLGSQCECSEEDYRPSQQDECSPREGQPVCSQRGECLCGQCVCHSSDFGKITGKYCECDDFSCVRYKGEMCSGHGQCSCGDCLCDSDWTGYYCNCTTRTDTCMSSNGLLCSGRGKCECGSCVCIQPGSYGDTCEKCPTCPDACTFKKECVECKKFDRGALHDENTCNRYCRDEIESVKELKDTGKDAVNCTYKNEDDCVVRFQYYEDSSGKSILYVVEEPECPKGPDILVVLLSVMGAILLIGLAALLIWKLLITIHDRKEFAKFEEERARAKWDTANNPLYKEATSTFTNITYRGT
percent decrease of band intensity (integrin-[125I]T4 complex) (purified αVβ3 integrin [1]) [%],percent decrease of band intensity (integrin-[125I]T4 complex) (purified αVβ3 integrin [2]) [%],percent decrease of band intensity (integrin-[125I]T4 complex) (purified αVβ3 integrin [3]) [%],percent reduction of integrin-[125I]T4 complex formation (purified αVβ3 integrin [4]) [%],percent reduction of T4 binding to αVβ3 (purified αVβ3 integrin [1]) [%],percent reduction of T4 binding to αVβ3 (purified αVβ3 integrin [2]) [%],percent reduction of T4 binding to αVβ3 (purified αVβ3 integrin [5]) [%],percent reduction of T4 binding to αVβ3 (purified αVβ3 integrin [3]) [%],percent reduction of T4 binding to αVβ3 (purified αVβ3 integrin [4]) [%],Substance
64,63,81,52,,,,,,monoclonal antibody LM609 to αVβ3
,,,,46,47,58,59,20,monoclonal antibody SC7312 to αVβ3
